Laboratory results taken from patent US20140024076A1 (AstraZeneca / MedImmune, published 2014).

Target: RSV-F protein, full-length, human RSV strain A2 (human respiratory syncytial virus, …, UniProt P03420 26-574)
Experiment: 25 nM Eu3+-labeled antibody on tetracycline-induced 293-derived cells, 44 h post induction; time-resolved fluorescence, R3-47 nonspecific binding subtracted

B1: motavizumab (antibody, V domains shown)
VH: QVTLRESGPALVKPTQTLTLTCTFSGFSLSTAGMSVGWIRQPPGKALEWLADIWWDDKKHYNPSLKDRLTISKDTSKNQVVLKVTNMDPADTATYYCARDMIFNFYFDVWGQGTTVTVSS
VL: DIQMTQSPSTLSASVGDRVTITCSASSRVGYMHWYQQKPGKAPKLLIYDTSKLASGVPSRFSGSGSGTEFTLTISSLQPDDFATYYCFQGSGYPFTFGGGTKVEIK
- fold amount of antibody bound, FGC-WPRE cell line compared to FGC cell line: 6.31 fold
